Consider 1 substance from patent US20230399409A1.

In one assay the target is human IL-36R (human) (UniProt Q9HB29). The assay can be described thus: flow cytometry on CHO-K1 cells expressing human IL-36R; fit value in the second table under the plot for a flat curve (row ECF corresponds to EC90 of Table 8; no unit in the table, axis in µg/mL). For orientation: A flow cytometer gives signals particle by particle.
A further assay deals with monkey IL-36R (monkey). The experiment in a line: flow cytometry on CHO-K1 cells expressing monkey IL-36R; fit value in the second table under the plot for a flat curve (row ECF corresponds to EC90 of Table 8; no unit in the table, axis in µg/mL).

Sequence of human IL-36R (human) (Q9HB29 20-575): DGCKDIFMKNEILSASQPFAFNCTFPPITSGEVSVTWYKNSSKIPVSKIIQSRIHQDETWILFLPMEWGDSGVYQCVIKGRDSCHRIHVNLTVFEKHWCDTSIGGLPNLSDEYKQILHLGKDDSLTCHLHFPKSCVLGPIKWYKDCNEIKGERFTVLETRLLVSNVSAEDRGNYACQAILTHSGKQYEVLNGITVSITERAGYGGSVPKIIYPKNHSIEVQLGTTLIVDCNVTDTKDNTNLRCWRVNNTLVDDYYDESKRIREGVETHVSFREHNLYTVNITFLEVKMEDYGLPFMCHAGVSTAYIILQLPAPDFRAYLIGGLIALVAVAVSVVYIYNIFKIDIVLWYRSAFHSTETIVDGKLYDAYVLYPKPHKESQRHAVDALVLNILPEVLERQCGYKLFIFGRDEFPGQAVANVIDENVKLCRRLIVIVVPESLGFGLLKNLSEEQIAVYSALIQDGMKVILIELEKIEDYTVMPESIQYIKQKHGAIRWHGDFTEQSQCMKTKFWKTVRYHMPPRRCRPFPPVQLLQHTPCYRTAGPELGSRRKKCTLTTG

For “TNP IgG1 (Fc silence) negative control antibody 900543”, the ECF in the assay with human IL-36R (human) was found to be 0.000494 µg/mL; in the assay with monkey IL-36R (monkey), 0.000457 µg/mL.
